Biological target: Bradykinin (Homo sapiens, UniProt P01042)
Assay: SPR

Chain of Bradykinin (P01042 whole entry, looked up): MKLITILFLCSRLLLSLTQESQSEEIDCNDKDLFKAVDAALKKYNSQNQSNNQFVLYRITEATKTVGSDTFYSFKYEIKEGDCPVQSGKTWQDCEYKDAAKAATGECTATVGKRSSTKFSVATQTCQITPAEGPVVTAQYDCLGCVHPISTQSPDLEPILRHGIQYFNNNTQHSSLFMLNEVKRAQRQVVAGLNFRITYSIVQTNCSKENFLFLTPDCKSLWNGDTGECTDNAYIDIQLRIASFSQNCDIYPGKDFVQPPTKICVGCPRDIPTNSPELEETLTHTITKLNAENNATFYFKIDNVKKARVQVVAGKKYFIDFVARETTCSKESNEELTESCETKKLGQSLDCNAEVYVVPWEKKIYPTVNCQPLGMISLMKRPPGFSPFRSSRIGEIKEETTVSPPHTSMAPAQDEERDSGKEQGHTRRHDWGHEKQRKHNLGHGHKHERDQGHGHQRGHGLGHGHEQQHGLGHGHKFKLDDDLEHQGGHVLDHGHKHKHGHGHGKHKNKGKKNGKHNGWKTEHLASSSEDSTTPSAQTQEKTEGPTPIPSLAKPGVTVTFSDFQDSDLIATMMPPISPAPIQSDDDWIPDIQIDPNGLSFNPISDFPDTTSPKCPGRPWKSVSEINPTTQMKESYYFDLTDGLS

Kd: 15.3 µM
B1: Aminopeptidase P (APaseP) (protein)
chain: PPKVTSELLRQLRQAMRNSEYVTEPIQAYIIPSGDAHQSEYIAPCDCRRAFVSGFDGSAGTAIITEEHAAMWTDGRYFLQAAKQMDSNWTLMKMGLKDTPTQEDWLVSVLPEGSRVGVDPLIIPTDYWKKMAKVLRSAGHHLIPVKENLVDKIWTDRPERPCKPLLTLGLDYTGISWKDKVADLRLKMAERNVMWFVVTALDEIAWLFNLRGSDVEHNPVFFSYAIIGLETIMLFIDGDRIDAPSVKEHLLLDLGLEAEYRIQVHPYKSILSELKALCADLSPREKVWVSDKASYAVSETIPKDHRCCMPYTPICIAKAVKNSAESEGMRRAHIKDAVALCELFNWLEKEVPKGGVTEISAADKAEEFRRQQADFVDLSFPTISSTGPNGAIIHYAPVPETNRTLSLDEVYLIDSGAQYKDGTTDVTRTMHFGTPTAYEKECFTYVLKGHIAVSAAVFPTGTKGHLLDSFARSALWDSGLDYLHGTGHGVGSFLNVHEGPCGISYKTFSDEPLEAGMIVTDEPGYYEDGAFGIRIENVVLVVPVKTKYNFNNRGSLTFEPLTLVPIQTKMIDVDSLTDKECDWLNNYHLTCRDVIGKELQKQGRQEALEWLIRETQPISKQH
